One block for each molecule: values may come before it. Square brackets hold non-standard residues; d marks the D form. Ends that are not written are not given here. Peptide text beside a SMILES is read from it. Lumio green = fluorophore conjugated via N-terminal linker CCPGCCGGGG; Rhodamine‑110 = fluorophore on the N-terminus; pT = C[C@@H](OP(=O)(O)O)[C@H](N)C(=O)O
Tests used:
[1] = target: T1, KLHL3 Kelch domain (GST-KLHL3, a.a. 298–587) (Homo sapiens, UniProt Q9UH77); assay: Fluorescence polarisation assay for the binding of WNK3 variants; conditions: 25°C; for Kd: GST-KLHL3 a.a. 298–587, 50 mM Tris–HCl pH 7.5, 150 mM NaCl, 2 mM DTT, one site specific binding with Hill slope, three technical replicates per point
T1 construct: using KLHL3 Kelch domain (GST-KLHL3, a.a. 298–587, MRC-PPU plasmid DU44387); host or cells: E. coli BL21
T1 sequence (Q9UH77 298-587): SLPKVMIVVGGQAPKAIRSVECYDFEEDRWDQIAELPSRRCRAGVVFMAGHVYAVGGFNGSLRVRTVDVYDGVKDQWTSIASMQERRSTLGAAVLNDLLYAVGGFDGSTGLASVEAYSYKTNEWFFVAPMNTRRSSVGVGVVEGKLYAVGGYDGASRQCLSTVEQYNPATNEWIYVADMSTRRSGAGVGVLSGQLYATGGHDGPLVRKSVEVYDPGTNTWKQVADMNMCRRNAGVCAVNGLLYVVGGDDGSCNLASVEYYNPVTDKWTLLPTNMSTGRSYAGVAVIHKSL
Protocol: Figure 2. Analysis of the interaction between KLHL3 and WNK3 variants by fluorescence polarisation. Purified GST-KLHL3 a.a. 298–587 was diluted appropriately and mixed at a 1 : 1 volume ratio with 20 nM Lumino-Green-labelled WNK3 peptides to the concentration stated in the Figure, with the peptide concentration consistent at 10 nM. Fluorescence polarisation measurements were recorded and corrected to the fluorescent probe alone. Each data point represents three technical replicates. One site-specific binding with hill slope was assumed and the disassociation constant was obtained. Binding curves, assuming one-site-specific binding, were then generated with Prism6 using milli-polarization (mP) units. TEXT PRINTED IN THE PICTURE: WNK3 [a.a.537-547] […] E541: KD > 50 μM | WNK3 [a.a.537-547] pT541: KD > 50 μM
For fluorescence polarisation measurements of WNK3 variants, the Kelch domain of human KLHL3 (a.a. […]) was cloned into the bacterial expression vector pGEX6P-1 (MRC-PPU plasmid DU44387) and expressed as a GST fusion protein as previously described. Briefly, E. coli BL21 cells were transformed with plasmid DNA and grown at 37°C in LB broth containing 100 µg/ml ampicillin until OD600 reached 0.6. Cells were then cultured at 16°C for a further 16 h in the presence of 50 µM IPTG for protein induction. Harvested cells were lysed by sonication and the lysate clarified by centrifugation. GST fusion protein was affinity purified using 0.5 ml glutathione–sepharose beads and eluted in buffer (50 mM Tris–HCl pH 7.5, 150 mM NaCl, 2 mM DTT) containing 20 mM glutathione.
Fluorescence polarisation measurements were performed at 25°C using KLHL3 Kelch domain (GST-KLHL3, a.a. 298–587, MRC-PPU plasmid DU44387) buffered in 50 mM Tris–HCl pH 7.5, 150 mM NaCl, 2 mM DTT. All peptides (ECEETEVDQHV, WNK3 a.a. 537–547), (ECEET(P)EVDQHV, WNK3 a.a. 537–547, Thr541 is phosphorylated), and (ECEEEEVDQHV, WNK3 a.a. 537–547, Thr541 is mutated to Glu) were conjugated to the Lumio green fluorophore via an N-terminal linker (CCPGCCGGGG) and dialysed into assay buffer before use. Samples were prepared with 10 nM Lumio-green labelled peptide and the indicated concentration of protein in a final volume of 30 µl. Fluorescence polarisation measurements were recorded using a BMG PheraStar plate reader, with an excitation wavelength of 485 nm and an emission wavelength of 538 nm, and measurements were corrected to the fluorescent probe alone. Data analysis and graphing were performed in GraphPad Prism6. One Site Specific binding with Hill Slope was assumed (model Y = Bmax × X^h/KD^h + X^h) and the disassociation constant, and associated standard error was obtained.

[2] = target: Lumio green-labelled WNK3 degron peptide (…, WNK3 a.a. 537–547) (human); assay: fluorescence polarisation; 10 nM Lumio green-labelled WNK3 peptide titrated with GST-KLHL3 Kelch domain; 25°C; 50 mM Tris–HCl pH 7.5, 150 mM NaCl, 2 mM DTT; one site specific binding with Hill slope
[3] = target: Lumio green-labelled phospho-WNK3 peptide (ECEET(P)EVDQHV, WNK3 a.a. 537–547, Thr541 phosphorylated) (human); assay: as above
[4] = system: WNK3 protein levels in HEK293 cells co-transfected with KLHL3-FLAG; assay: KLHL3-mediated degradation of WNK3 on co-transfection, immunoblotting for WNK3 protein levels; type: cell-based; conditions: WNK3-HA wild type or mutant with increasing KLHL3-FLAG, 48 h post transfection, immunoblot, three independent experiments, mean ± SEM
Protocol: Figure 3. T541E substitution in WNK3 affects its KLHL3-targeted degradation in HEK293 cells. (A) WNK3-HA protein levels were investigated in HEK293 cells transfected with either wild type or mutant constructs and increasing concentrations of KLHL3-FLAG. A representative blot is presented. (B) Quantitative results of three independent experiments. Data are mean ± SEM. * P < 0.01, ** P < 0.0005.
HEK293 cells (ATCC® CRL-1573) were grown in Dulbecco's modified Eagle's medium (DMEM) supplemented with 10% fetal bovine serum to 70–80% confluence and transfected using Lipofectamine 2000 (Life Technologies, Inc.) with wild type or mutant WNK3-HA [46] and with different concentrations of KLHL3-FLAG [42]. Forty-eight hours post transfection, cells were lysed and protein concentration was quantified by the BCA protein assay (Pierce). Samples were diluted in Laemmli buffer and subjected to SDS–PAGE. Proteins were transferred to PVDF membranes which were then blocked for 1 h in 10% (w/v) non-fat milk dissolved in TBS- Tween 20 0.1% (TBSt). Antibodies were diluted in 5% (w/v) non-fat milk-TBSt. Incubation with HRP-coupled primary antibodies was performed overnight. Immunoblots were developed using radiographic film.
Lysis buffer: 50 mM Tris–HCl (pH 7.5), 1 mM EGTA, 1 mM EDTA, 50 mM sodium fluoride, 5 mM sodium pyrophosphate, 1 mM sodium orthovanadate, 1% (w/v) IGEPAL CA-630, 270 mM sucrose, 0.1% (v/v) 2-mercaptoethanol, and protease inhibitors (Complete tablets (Roche Applied Science).

[5] = target: T2, GST-KLHL3 Kelch domain (a.a. 298–587) (human, UniProt Q9UH77 298-587); assay: FP
T2 chain: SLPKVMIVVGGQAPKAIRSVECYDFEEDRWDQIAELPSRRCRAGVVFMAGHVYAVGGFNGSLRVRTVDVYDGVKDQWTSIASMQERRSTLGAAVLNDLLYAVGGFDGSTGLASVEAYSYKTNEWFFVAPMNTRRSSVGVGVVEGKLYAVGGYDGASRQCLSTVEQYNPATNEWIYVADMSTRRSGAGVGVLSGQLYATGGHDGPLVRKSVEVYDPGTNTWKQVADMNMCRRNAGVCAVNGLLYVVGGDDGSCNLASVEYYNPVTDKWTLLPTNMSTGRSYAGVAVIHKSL

[6] = target: T3, KLHL3 Kelch domain (a.a. 298–587) (human, UniProt Q9UH77-1 298-587); assay: FP; 0 mM Cl-
T3 chain: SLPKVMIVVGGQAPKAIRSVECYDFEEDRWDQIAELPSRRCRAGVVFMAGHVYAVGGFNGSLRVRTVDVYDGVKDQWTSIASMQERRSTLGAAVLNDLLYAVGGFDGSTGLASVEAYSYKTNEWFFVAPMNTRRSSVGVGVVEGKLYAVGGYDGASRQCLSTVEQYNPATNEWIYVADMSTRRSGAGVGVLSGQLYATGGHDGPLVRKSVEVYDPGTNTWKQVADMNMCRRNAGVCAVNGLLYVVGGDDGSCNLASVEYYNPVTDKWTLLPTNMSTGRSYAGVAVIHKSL

[7] = target: T3, KLHL3 Kelch domain (a.a. 298–587); assay: FP; 37 mM Cl-
[8] = target: T3, KLHL3 Kelch domain (a.a. 298–587); assay: FP; 9.5 mM Cl-
[9] = target: T4, KLHL3 Kelch domain (a.a. 298–587) (human, UniProt Q9UH77-1 298-587); assay: fluorescence polarisation; 10 nM Rhodamine-110 labelled peptide with KLHL3 (a.a. 298–587) from 0 to 3200 or 6400 nM; 25°C; test of the effect of chloride concentration; one site total fit; conditions: both partners purified
T4 construct: Kelch-like protein 3 (KLHL3), human, Kelch domain, a.a; 298–587; Vector pNIC28-Bsa4; the hexahistidine tag was cleaved with TEV protease; It is not clear whether Addgene #110251 names the vector or the construct; also called KLHL3 (a.a. 298–587); source: E. coli BL21(DE3)-pRARE, purified (nickel-sepharose, SEC, TEV cleavage); not shown: His6, N-terminal, cleaved
T4 sequence (looked up): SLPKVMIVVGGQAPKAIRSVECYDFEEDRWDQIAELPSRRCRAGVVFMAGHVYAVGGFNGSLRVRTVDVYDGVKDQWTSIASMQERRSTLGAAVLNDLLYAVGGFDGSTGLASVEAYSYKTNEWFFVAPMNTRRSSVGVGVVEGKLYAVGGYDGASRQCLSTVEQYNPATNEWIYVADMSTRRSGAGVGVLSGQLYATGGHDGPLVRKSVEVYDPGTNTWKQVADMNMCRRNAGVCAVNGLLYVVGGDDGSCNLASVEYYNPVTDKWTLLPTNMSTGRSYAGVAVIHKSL

[10] = target: T3, KLHL3 Kelch domain (a.a. 298–587); assay: FP; 4.7 mM Cl-
[11] = target: T3, KLHL3 Kelch domain (a.a. 298–587); assay: FP; 75 mM Cl-
[12] = target: T3, KLHL3 Kelch domain (a.a. 298–587); assay: FP; 150 mM Cl-
[13] = target: T3, KLHL3 Kelch domain (a.a. 298–587); assay: FP; 150 mM F-
[14] = target: T3, KLHL3 Kelch domain (a.a. 298–587); assay: FP; 2.4 mM Cl-
[15] = target: T3, KLHL3 Kelch domain (a.a. 298–587); assay: FP; 18 mM Cl-
[16] = 10 nM Lumio-green labelled peptide (N-terminal linker CCPGCCGGGG), 30 µl, ex 485/em 538 nm, repeated at least twice

Molecule: T541A: WNK3-HA mutant T541A transfected in HEK293 cells
WNK3 levels / KLHL3-mediated degradation (in words) [4]: reduced KLHL3-mediated degradation of WNK3

Molecule: CC(C)[C@H](NC(=O)[C@H](Cc1c[nH]cn1)NC(=O)[C@H](CCC(N)=O)NC(=O)[C@H](CC(=O)O)NC(=O)[C@@H](NC(=O)[C@H](CCC(=O)O)NC(=O)[C@@H](NC(=O)[C@H](CCC(=O)O)NC(=O)[C@H](CCC(=O)O)NC(=O)[C@H](CS)NC(=O)[C@@H](N)CCC(=O)O)[C@@H](C)OP(=O)(O)O)C(C)C)C(=O)O [WNK3 [a.a.537-547] pT541] (H-ECEE[pT]EVDQHV-OH; N-terminus and C-terminus assumed)
Kd [1, 16]: > 50000 nM | KLHL3 interaction (in words) ([1]; fluorescence polarisation, GST-KLHL3 a.a. 298–587, 10 nM Lumio-green labelled peptide, pH 7.5): too severely destabilised to measure a dissociation constant

Molecule: ECEETEVDQHV [WNK3 [a.a.537-547] WT]
Kd [1, 16]: 670 nM

Molecule: WNK3: wild type WNK3-HA transfected in HEK293 cells
WNK3 levels / KLHL3-mediated degradation (in words) [4]: significantly lower than in the absence of KLHL3, even at the lowest amounts of KLHL3 DNA used for transfection

Molecule: WNK3 T541E: WNK3-HA mutant T541E transfected in HEK293 cells
WNK3 levels / KLHL3-mediated degradation (in words) [4]: noticeably resistant to degradation

The remaining lines, values ahead:

Kd ([1]; printed in Figure 2 picture, 10 nM Lumio-green labelled peptide): > 50000 nM
Molecule: ECEEEEVDQHV [WNK3 [a.a.537-547] E541]

Kd [2]: 670 nM | Kd [3]: > 50000 nM
Molecule: GST-KLHL3 Kelch domain (a.a. 298–587) (from UniProt Q9UH77 298-587) (domain or fragment)

Kd [5]: > 50000 nM
B1: Lumio green-labelled WNK3 T541E peptide (ECEEEEVDQHV, WNK3 a.a. 537–547, Thr541 mutated to Glu) (peptide)
peptide: {Lumio green}-CCPGCCGGGGECEEEEVDQHV
modifications: cysteine pairing not given here

Kd [6]: 700 nM | Kd [7]: 600 nM | Kd [8]: 600 nM | binding result [9]: binds | Kd [10]: 600 nM | Kd [11]: 600 nM | Kd [12]: 700 nM | Kd [13]: 300 nM | Kd [14]: 600 nM | Kd [15]: 600 nM
B2: Rhodamine-110 labelled WNK4 degron peptide (EPEEPEADQHQ) (peptide)
peptide: {Rhodamine‑110}-EPEEPEADQHQ
notes: WNK4 acidic degron motif, residues 557–567; also called 11-residue degron from WNK4; source: synthetic peptide (Fmoc solid phase, purified by HPLC)

Kd [6]: 1700 nM | Kd [7]: 1500 nM | Kd [8]: 1300 nM | Kd [10]: 1700 nM | Kd [11]: 1300 nM | Kd [12]: 1300 nM | Kd [13]: 1100 nM | Kd [14]: 1200 nM | Kd [15]: 1400 nM
B3: Rhodamine-110 labelled WNK3 degron peptide (ECEETEVDQHV) (peptide)
peptide: {Rhodamine‑110}-ECEETEVDQHV
